Results as given in PMC5591402, “Facile Affinity Maturation of Antibody Variable Domains Using Natural Diversity Mutagenesis” (Frontiers in Immunology, 2017).
Where no end group is shown, it is not given here.

T1: TAMRA-labeled α-synuclein peptide (Homo sapiens, also: TAMRA fluorophore, position not given here)
T1 construct: the TAMRA peptide is called the α-synuclein peptide; also called C-terminal α-synuclein peptide; antigen; source: synthetic peptide, bought: Genemed Synthesis Inc
T1 chain: GYQDYEPEA

B1: N2 VHH alanine mutant L52b (VHH)
VHH: QGQLVESGGGSVQAGGSLRLSCAASGIDSSSYCMGWFRQRPGKEREGVARINGAGGVKTAYADSVKDRFTISRDNAENTVYLQMNSLKPEDTAIYYCAAKFSPGYCGGSWSNFGYWGQGTQVTVSS
notes: PDB 2X6M) with the stated change; Kabat numbering
B2: N2 VHH alanine mutant G53 (VHH)
VHH: QGQLVESGGGSVQAGGSLRLSCAASGIDSSSYCMGWFRQRPGKEREGVARINGLAGVKTAYADSVKDRFTISRDNAENTVYLQMNSLKPEDTAIYYCAAKFSPGYCGGSWSNFGYWGQGTQVTVSS
notes: as for B1
B3: N2 VHH alanine mutant V55 (VHH)
VHH: QGQLVESGGGSVQAGGSLRLSCAASGIDSSSYCMGWFRQRPGKEREGVARINGLGGAKTAYADSVKDRFTISRDNAENTVYLQMNSLKPEDTAIYYCAAKFSPGYCGGSWSNFGYWGQGTQVTVSS
notes: as for B1
B4: N2 VHH alanine mutant F96 (VHH)
VHH: QGQLVESGGGSVQAGGSLRLSCAASGIDSSSYCMGWFRQRPGKEREGVARINGLGGVKTAYADSVKDRFTISRDNAENTVYLQMNSLKPEDTAIYYCAAKASPGYCGGSWSNFGYWGQGTQVTVSS
notes: as for B1
B5: N2 VHH alanine mutant S97 (VHH)
VHH: QGQLVESGGGSVQAGGSLRLSCAASGIDSSSYCMGWFRQRPGKEREGVARINGLGGVKTAYADSVKDRFTISRDNAENTVYLQMNSLKPEDTAIYYCAAKFAPGYCGGSWSNFGYWGQGTQVTVSS
notes: as for B1
B6: N2 VHH alanine mutant G99 (VHH)
VHH: QGQLVESGGGSVQAGGSLRLSCAASGIDSSSYCMGWFRQRPGKEREGVARINGLGGVKTAYADSVKDRFTISRDNAENTVYLQMNSLKPEDTAIYYCAAKFSPAYCGGSWSNFGYWGQGTQVTVSS
notes: as for B1
B7: N2 VHH alanine mutant G100b (VHH)
VHH: QGQLVESGGGSVQAGGSLRLSCAASGIDSSSYCMGWFRQRPGKEREGVARINGLGGVKTAYADSVKDRFTISRDNAENTVYLQMNSLKPEDTAIYYCAAKFSPGYCAGSWSNFGYWGQGTQVTVSS
notes: as for B1
B8: N2 VHH alanine mutant G100c (VHH)
VHH: QGQLVESGGGSVQAGGSLRLSCAASGIDSSSYCMGWFRQRPGKEREGVARINGLGGVKTAYADSVKDRFTISRDNAENTVYLQMNSLKPEDTAIYYCAAKFSPGYCGASWSNFGYWGQGTQVTVSS
notes: as for B1
B9: N2 VHH alanine mutant S100d (VHH)
VHH: QGQLVESGGGSVQAGGSLRLSCAASGIDSSSYCMGWFRQRPGKEREGVARINGLGGVKTAYADSVKDRFTISRDNAENTVYLQMNSLKPEDTAIYYCAAKFSPGYCGGAWSNFGYWGQGTQVTVSS
notes: as for B1
B10: N2 VHH alanine mutant S100f (VHH)
VHH: QGQLVESGGGSVQAGGSLRLSCAASGIDSSSYCMGWFRQRPGKEREGVARINGLGGVKTAYADSVKDRFTISRDNAENTVYLQMNSLKPEDTAIYYCAAKFSPGYCGGSWANFGYWGQGTQVTVSS
notes: as for B1
B11: N2 VHH alanine mutant N100g (VHH)
VHH: QGQLVESGGGSVQAGGSLRLSCAASGIDSSSYCMGWFRQRPGKEREGVARINGLGGVKTAYADSVKDRFTISRDNAENTVYLQMNSLKPEDTAIYYCAAKFSPGYCGGSWSAFGYWGQGTQVTVSS
notes: as for B1
B12: wild-type N2 VHH antibody (VHH)
VHH: QGQLVESGGGSVQAGGSLRLSCAASGIDSSSYCMGWFRQRPGKEREGVARINGLGGVKTAYADSVKDRFTISRDNAENTVYLQMNSLKPEDTAIYYCAAKFSPGYCGGSWSNFGYWGQGTQVTVSS
notes: also called NbSyn2; wild-type N2 variable domain; not shown: His6, C-terminal, kept
B13: N2.17 reversion mutant L52b (VHH)
VHH: QGQLVESGGGSVQAGGSLRLSCAASGIDSSSYCMGWFRQRPGKEREGVARINGLGGVKTAYADSVKDRFTISRDNAENTVYLQMNSLKPEDTAIYYCAAKSSPGYCGGTWFNFGYWGQGTQVTVSS
notes: as the VHH chain of m4 (N2.17) with W52b reverted to the wild-type L52b; PDB 2X6M); Kabat numbering
B14: N2.17 reversion mutant F96 (VHH)
VHH: QGQLVESGGGSVQAGGSLRLSCAASGIDSSSYCMGWFRQRPGKEREGVARINGWGGVKTAYADSVKDRFTISRDNAENTVYLQMNSLKPEDTAIYYCAAKFSPGYCGGTWFNFGYWGQGTQVTVSS
notes: as the VHH chain of m4 (N2.17) with S96 reverted to the wild-type F96; PDB 2X6M); Kabat numbering
B15: N2.17 reversion mutant S100d (VHH)
VHH: QGQLVESGGGSVQAGGSLRLSCAASGIDSSSYCMGWFRQRPGKEREGVARINGWGGVKTAYADSVKDRFTISRDNAENTVYLQMNSLKPEDTAIYYCAAKSSPGYCGGSWFNFGYWGQGTQVTVSS
notes: as the VHH chain of m4 (N2.17) with T100d reverted to the wild-type S100d; PDB 2X6M); Kabat numbering
B16: N2.5 VHH (VHH)
VHH: QGQLVESGGGSVQAGGSLRLSCAASGIDSSSYCMGWFRQRPGKEREGVARINGLSGVKTAYADSVKDRFTISRDNAENTVYLQMNSLKPEDTAIYYCAAKSSPGYCGGTWFSFGYWGQGTQVTVSS
notes: PDB 2X6M) with mutations in CDR2 and CDR3; One of the 17 unique variants of the enriched library (1-6 mutations in CDR2 and CDR3)
B17: N2.16 VHH (VHH)
VHH: QGQLVESGGGSVQAGGSLRLSCAASGIDSSSYCMGWFRQRPGKEREGVGRINGWSGVKTAYADSVKDRFTISRDNAENTVYLQMNSLKPEDTAIYYCAAKSSPGYCGGTWYNFGYWGQGTQVTVSS
notes: PDB 2X6M) with mutations in CDR2 and CDR3; One of the 17 unique variants of the enriched library
B18: N2.12 VHH (VHH)
VHH: QGQLVESGGGSVQAGGSLRLSCAASGIDSSSYCMGWFRQRPGKEREGVGRINGWRGIKTAYADSVKDRFTISRDNAENTVYLQMNSLKPEDTAIYYCAAKSSPGYCGGTWSNFGYWGQGTQVTVSS
notes: PDB 2X6M) with six CDR mutations; Kabat numbering; Selected from the natural diversity library by yeast display; also called N2.12 variant; not shown: His6, C-terminal, kept
B19: N2.17 VHH (VHH)
VHH: QGQLVESGGGSVQAGGSLRLSCAASGIDSSSYCMGWFRQRPGKEREGVARINGWGGVKTAYADSVKDRFTISRDNAENTVYLQMNSLKPEDTAIYYCAAKSSPGYCGGTWFNFGYWGQGTQVTVSS
notes: PDB 2X6M) with four CDR mutations; Kabat numbering; Selected from the natural diversity library by yeast display; also called N2.17 variant; not shown: His6, C-terminal, kept
B20: N2.12 reversion mutant A49 (VHH)
VHH: QGQLVESGGGSVQAGGSLRLSCAASGIDSSSYCMGWFRQRPGKEREGVARINGWRGIKTAYADSVKDRFTISRDNAENTVYLQMNSLKPEDTAIYYCAAKSSPGYCGGTWSNFGYWGQGTQVTVSS
notes: as the VHH chain of m3 (N2.12) with G49 reverted to the wild-type A49; PDB 2X6M); Kabat numbering; also called N2.12 with A49
B21: N2.12 reversion mutant L52b (VHH)
VHH: QGQLVESGGGSVQAGGSLRLSCAASGIDSSSYCMGWFRQRPGKEREGVGRINGLRGIKTAYADSVKDRFTISRDNAENTVYLQMNSLKPEDTAIYYCAAKSSPGYCGGTWSNFGYWGQGTQVTVSS
notes: as the VHH chain of m3 (N2.12) with W52b reverted to the wild-type L52b; PDB 2X6M); Kabat numbering
B22: N2.12 reversion mutant G53 (VHH)
VHH: QGQLVESGGGSVQAGGSLRLSCAASGIDSSSYCMGWFRQRPGKEREGVGRINGWGGIKTAYADSVKDRFTISRDNAENTVYLQMNSLKPEDTAIYYCAAKSSPGYCGGTWSNFGYWGQGTQVTVSS
notes: as the VHH chain of m3 (N2.12) with R53 reverted to the wild-type G53; PDB 2X6M); Kabat numbering
B23: N2.12 reversion mutant F96 (VHH)
VHH: QGQLVESGGGSVQAGGSLRLSCAASGIDSSSYCMGWFRQRPGKEREGVGRINGWRGIKTAYADSVKDRFTISRDNAENTVYLQMNSLKPEDTAIYYCAAKFSPGYCGGTWSNFGYWGQGTQVTVSS
notes: as the VHH chain of m3 (N2.12) with S96 reverted to the wild-type F96; PDB 2X6M); Kabat numbering; also called reversion mutation (F96)
B24: N2.12 reversion mutant S100d (VHH)
VHH: QGQLVESGGGSVQAGGSLRLSCAASGIDSSSYCMGWFRQRPGKEREGVGRINGWRGIKTAYADSVKDRFTISRDNAENTVYLQMNSLKPEDTAIYYCAAKSSPGYCGGSWSNFGYWGQGTQVTVSS
notes: as the VHH chain of m3 (N2.12) with T100d reverted to the wild-type S100d; PDB 2X6M); Kabat numbering
B25: N2.17 reversion mutant S100f (VHH)
VHH: QGQLVESGGGSVQAGGSLRLSCAASGIDSSSYCMGWFRQRPGKEREGVARINGWGGVKTAYADSVKDRFTISRDNAENTVYLQMNSLKPEDTAIYYCAAKSSPGYCGGTWSNFGYWGQGTQVTVSS
notes: as the VHH chain of m4 (N2.17) with F100f reverted to the wild-type S100f; PDB 2X6M); Kabat numbering; also called reversion mutation S100f

Target: T1, TAMRA-labeled α-synuclein peptide
Test: fluorescence polarisation; alanine scan: single VHH concentrations (44, 133 and 400 nM) with 2 nM TAMRA-labeled α-synuclein peptide; background-subtracted signal of the mutant divided by that of wild type
Settings: both partners purified
For B1, the “binding relative to wild type (normalised polarisation signal)” value was > 50%.
In the case of B2, the “binding relative to wild type (normalised polarisation signal)” value is reported as > 50%.
For B3, the “binding relative to wild type (normalised polarisation signal)” value was > 50%.
B4 was tested, and the “binding relative to wild type (normalised polarisation signal)” value was > 50%.
B5 was tested, and the “binding relative to wild type (normalised polarisation signal)” value was > 50%.
With B6 the “binding relative to wild type (normalised polarisation signal)” value was > 50%.
In the case of B7, the “binding relative to wild type (normalised polarisation signal)” value is reported as > 50%.
With B8 the “binding relative to wild type (normalised polarisation signal)” value was > 50%.
B9 was tested, and the “binding relative to wild type (normalised polarisation signal)” value was > 50%.
B10 was tested, and the “binding relative to wild type (normalised polarisation signal)” value was > 50%.
In the case of B11, the “binding relative to wild type (normalised polarisation signal)” value is reported as > 50%.

Target: T1, TAMRA-labeled α-synuclein peptide
Test: fluorescence polarisation; VHH titrated (0.8 nM-1.6 µM) against 2 nM TAMRA-labeled α-synuclein peptide; PBS with 0.001% BSA and 0.001% Tween 20; room temperature, 3 h; fit that accounts for antibody not in excess of antigen
Settings: both partners purified
A Kd of 0.0576 µM was found for B12 in this work.
B13: binds.
B14: binds.
B15: binds.
B16: binds.
B17: binds.
A Kd of 0.0076 µM was found for B18 in this work.
A Kd of 0.0132 µM was found for B19 in this work.
B20 was tested, and the “fold affinity enhancement relative to wild type” value was > 7 fold.
B21: binds.
B22: binds.
B23: binds.
B24: binds.
B25: binds.
